Experimental data taken from patent US20240415889A1 (published 2024).

Experiments:
[1] = biological target: T1, single chain CD94/NKG2A-Fc (CD94/NKG2A-IgG1 fusion polypeptide); test: competitive ELISA (HLA-E tetramer)
[2] = biological target: T1, single chain CD94/NKG2A-Fc …; test: ELISA; FIG. 27
[3] = biological target: T1, single chain CD94/NKG2A-Fc …; test: BLI
[4] = biological target: T1, single chain CD94/NKG2A-Fc …; test: competitive ELISA (HLA-E tetramer); FIG. 26

T1 sequence (chain, as listed by the source): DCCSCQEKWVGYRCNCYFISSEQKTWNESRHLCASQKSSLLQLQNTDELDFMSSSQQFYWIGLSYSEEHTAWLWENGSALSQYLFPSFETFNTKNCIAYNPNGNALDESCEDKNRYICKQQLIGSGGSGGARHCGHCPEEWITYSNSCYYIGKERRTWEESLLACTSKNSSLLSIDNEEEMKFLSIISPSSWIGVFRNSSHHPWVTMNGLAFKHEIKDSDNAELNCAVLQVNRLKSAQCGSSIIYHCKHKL

Row | Binder | IC50 [1] | EC50 [2] | Kd [3] | IC50 [4]
1 | IgG Clone #2 (1B2-6, IgG1-LALA-PG) (antibody, V domains shown) VH: EVQLVESGGGLVKPGGSLRLSCAASGFTFSGYYMSWIRQAPGKGLEWLAYISNSGRTIYYADSVKGRFTISRDNSNSSLYLQMNSLRAEDTAVYYCARGFYMDAWGKGTTVTVSS VL: DIQMTQSPSSLSASVGDRVTITCRASQSISSYLNWYQQKPGKAPKLLIYAASSLQSGVPSRFSGSGSGTDFTLTISSLQPEDFGVYYCQYYGISPPFTFGPGTKVDIKR | 1.4 nM | 0.64 nM |  | 
2 | IgG Clone #1 (1B2, IgG1-LALA-PG) (antibody, V domains shown) VH: QVQLVESGGGLVKPGGSLRLSCAASGFTFSDYYMSWIRQAPGKGLEWVSYISSSGSTIYYADSVKGRFTISRDNAKNSLYLQMNSLRAEDTAVYYCARGFYMDAWGKGTTVTVSS VL: DIQMTQSPSSLSASVGDRVTITCRASQSISSYLNWYQQKPGKAPKLLIYAASSLQSGVPSRFSGSGSGTDFTLTISSLQPEDFGVYYCQYYGISPPFTFGPGTKVDIKR | 9.6 nM | 1.6 nM | 1.14 nM | 20 nM
